Laboratory results from patent US20250035612A1 (NEURIMMUNE, published 2025).
Ends that are not written are not given here. * marks the point of attachment. Biotin = O=C1N[C@H]2[C@H](CS[C@H]2CCCCC(=O)*)N1; Ahx = NCCCCCC(=O)O

What was measured:
[1] = biological target: T1, cyclic peptide TTR34-54cyc (cyclized via disulfide bridge between two cysteine residues within the poly-glycine stretch); experiment: cell-based or functional assay
Biotin.TTR34-54cyc [2] = biological target: T2, Biotin.TTR34-54cyc (N-terminal Biotin-(Ahx): amino hexanoic acid spacer between the N-terminus and the biotin residue; cyclized via disulfide bridge between the two cysteine residues); experiment: ELISA (ELISA-2), plate coated with Biotin.TTR34-54cyc at 10 µg/ml, antibody titrated
T2 construct: Biotinylated form of TTR34-54cyc; also called biotinylated TTR34-54cyc
Description: (§1) In particular, 96-well microplates were coated for 1 hour at 37° C. with TTR34-54cyc, TTR40-49, Biotin. TTR40-449, and mis-WT-TTR (FLISA-1) and with TTR34-54cyc, Biotin. TTR34-54cyc, TTR40-49, Biotin. TTR40-449, and mis-WT-TTR (ELISA-2), respectively, wherein each target antigen has been diluted to a concentration of 10 μg/ml in PBS buffer pH 7.4. Non-specific binding sites were blocked for 1 hour at room temperature (RT) with a blocking buffer containing 2% bovine serum albumin (BSA) and 0.1% tween-20 in PBS buffer. […] Binding was determined using an anti-human IgG antibody conjugated with horseradish peroxidase (HRP), followed by measurement of HRP activity in a standard colorimetric assay (ThermoFisher Scientific Inc., Waltham, Massachusetts, USA). Data were analyzed with the Prism software from GraphPad. ECso values were estimated using non-linear regression of individual data points using log (agonist) versus response model with variable slope. Data fitting was performed with the least square regression method.

TTR peptide TTR40-49 = biological target: T3, TTR peptide TTR40-49; experiment: ELISA-1 and ELISA-2, peptide coated at 10 µg/ml, anti-human IgG-HRP detection
T3 peptide: H-TWEPFASGKT-OH
Description: as §1

Biotin.TTR40-49 = biological target: T4, Biotin.TTR40-49; experiment: as above
T4 construct: also called Biotin; TTR40-449; biotinylated TTR peptide TTR40-49
T4 peptide: {Biotin-Ahx}-TWEPFASGKT
Description: as §1

[3] = biological target: T1, cyclic peptide TTR34-54cyc; experiment: ELISA-2, coated TTR34-54cyc at 10 µg/ml, anti-human IgG-HRP detection
Description: as §1

[4] = biological target: fluorescently labeled misfolded TTR aggregates of the monomeric F87M/L110M-TTR mutant (mis.TTR-488) (UniProt P02766 21-147); experiment: cell-based or functional assay
[5] = biological target: T1, cyclic peptide TTR34-54cyc; experiment: cell-based or functional assay; remark: listed apart in the source
[6] = biological target: T1, cyclic peptide TTR34-54cyc; experiment: ELISA-1, coated TTR34-54cyc at 10 µg/ml, anti-human IgG-HRP detection
Description: as §1

[7] = biological target: T1, cyclic peptide TTR34-54cyc; experiment: ELISA, coated peptide at 10 µg/ml, reference mis.WT-TTR
Description: as §1

Biotin.TTR34-54cyc [8] = biological target: T2, Biotin.TTR34-54cyc; experiment: as above
Description: as §1

T1 sequence (peptide, as listed by the source): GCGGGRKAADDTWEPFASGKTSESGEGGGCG
T2 sequence (peptide, as listed by the source): as above

B1: anti-TTR antibody NI-301.37F1 (antibody, V domains shown)
VH: QVQLQESGPGLVKPSETLSLTCSVSGGSIISRSSYWGWIRQPPGKGLEWIGGIYHSGNTYDNPSLKSRLTMSVDTSKNQFSLNLRSVTAADTAVYYCARIVPGGDAFDIWGQGTMVTVSS
VL: DIQMTQSPSSLSASVGDRVTIACRASQSVGTYLNWYQQKRGKAPKLLIFAASSLQSGVPSRFSGSGSGTDFTLTISSLQPEDFATYYCQQSYSSPPTFGQGTKVEIK
notes: detected with anti-human IgG; also called 37F1_3
In the case of B1, the “EC50 (ng/mL) of the FcγR1 ADCP reporter assay, plate coated with TTR34-54cyc; reference sample (RS) 100%, run with the 50% test sample” value [1] is reported as 19.8 ng/mL, the “EC50 (ng/mL) of the FcγR1 ADCP reporter assay, plate coated with TTR34-54cyc; reference sample (RS) 100%, run with the 70% test sample” value [1] is reported as 19.8 ng/mL and the “EC50 (ng/mL) of the FcγR1 ADCP reporter assay, plate coated with TTR34-54cyc; reference sample (RS) 100%, run with the 130% test sample” value [1] is reported as 17.6 ng/mL. The “EC50 (ng/mL) of the FcγR1 ADCP reporter assay, plate coated with TTR34-54cyc; reference sample (RS) 100%, run with the 150% test sample” value [1] was 19.3 ng/mL, the “EC50 (ng/mL) of the FcγR1 ADCP reporter assay, plate coated with TTR34-54cyc; test sample 50% (nominal concentration)” value [1] was 39 ng/mL and the “EC50 (ng/mL) of the FcγR1 ADCP reporter assay, plate coated with TTR34-54cyc; test sample 70% (nominal concentration)” value [1] was 30.4 ng/mL. The “EC50 (ng/mL) of the FcγR1 ADCP reporter assay, plate coated with TTR34-54cyc; test sample 130% (nominal concentration)” value [1] was 13.6 ng/mL, the “EC50 (ng/mL) of the FcγR1 ADCP reporter assay, plate coated with TTR34-54cyc; test sample 150% (nominal concentration)” value [1] was 13.5 ng/mL and the “EC50 (read off the curve)” value (Biotin.TTR34-54cyc [2]) was ~600 pM. For the same binder, the binding result (TTR peptide TTR40-49) was “no binding”, the binding result (Biotin.TTR40-49) was “no binding” and the EC50 [3] was 660 pM. For the same binder, the “EC50 of the mis.TTR-488 phagocytosis dose-response in THP1 cells, 0.7x_NI-301.37F1_3 (nominal concentration; sample at 0.7x of the reference)” value [4] was 1500 pM, the “EC50 of the mis.TTR-488 phagocytosis dose-response in THP1 cells, 1x_NI-301.37F1_3” value [4] was 1200 pM and the “EC50 of the mis.TTR-488 phagocytosis dose-response in THP1 cells, NI-301.37F1_W1 GMP DS” value [4] was 540 pM. For the same binder, the “EC50 of the mis.TTR-488 phagocytosis dose-response in THP1 cells, NI-301.37F1_W1 non-GMP DP” value [4] was 920 pM, the “EC50 of the FcγR1 ADCP reporter assay, first experiment (FIG. 11); plate coated with 3 µg/mL TTR34-54cyc, NI-301.37F1 RS dilutions 500-0.4 ng/ml” value [5] was 0.0198 µg/mL and the EC50 [6] was 27 pM. The “fold stronger binding than to mis. WT-TTR” value [7] was ~10 fold and the “fold stronger binding than to mis. WT-TTR” value (Biotin.TTR34-54cyc [8]) was ~10 fold.
